# Data published in the RNAGym collection of RNA variant scans (doi:10.7554/elife.80360).
# B1: HDV Ribozyme (parent)
# chain: GGCCGGCAUGGUCCCAGCCUCCUCGCUGGCGCCGGCUGGGCAACAUUCCGAGGGGACCGUCCCCUCGGUAAUGGCGAAUGGGACCCA
# Variants of: B1
# Assay: self-cleavage, relative activity (ratio to wild type); higher = more cleavage; co-transcriptional
row,Variant,self-cleavage
1,C18U G50A,0.852
2,C24G C84U,0.12
3,C66U U72G,0.582
4,C3G G25A,0.0511
5,C36G C86G,0.119
6,G35A C44U,0.188
7,C3G C18A,0.0542
8,G5C G28C,0.208
9,G2A G40C,0
10,C49A C58A,0.986
11,C4A C86U,0.284
12,C18G G81C,0
13,C19G A87U,0.0839
14,G82C C86G,0.194
15,G11U A71U,0.158
16,C30G C49G,0.203
17,G6A A16G,0.573
18,C19U G25A,0.0252
19,G1U C33G,0.248
20,U79G G81U,0.225
21,C30U G67C,0.649
22,C21G C58G,0
23,G67C G68C,0.566
24,U46A C49U,0.739

row,Variant,self-cleavage
1,C24A G76U,0.842
2,U69C G73C,0.633
3,U69C G73U,0.489
4,G28A G31C,0
5,C13G C49A,0.123
6,G40A G73C,0.544
7,G6C G68C,0.364
8,C41U G50A,1.01
9,C30U C85A,0.441
10,G53U,1.01
11,U47G C61A,1.2
12,G55A C86G,0.818
13,C48G C86U,0.932
14,C36G G80C,0.108
15,G67U G76A,1.18
16,U23C C75A,0.166
17,G17C C85A,0.388
18,C36U G38C,0.113
19,A45U A83U,0.128
20,G10C C18G,0.0594
21,G17A C19U,0.119
22,U27G C85A,0.831
23,C18G G52A,0.156
24,G35A U47G,0.443

row,Variant,self-cleavage
1,C64U C84U,0.785
2,A42U G53U,0.698
3,U65G,0.988
4,U20G C85A,0.277
5,G6A C44U,0.457
6,C33G A78U,0.0875
7,A42U C57U,0.428
8,G6U C24A,0.0378
9,C15G A16C,0.369
10,C44A G80C,0.109
11,U46C A51U,0.846
12,C19U G81A,0
13,C3U C15U,0.562
14,C15U U60G,0.554
15,G82U C85A,0.256
16,C13A C36A,0.0421
17,C36A G73U,0.0583
18,G29C G82C,0.0739
19,C26A U69C,0.988
20,U9G G34C,0.175
21,C24A C84A,0.787
22,U20G C41U,0.287
23,G17C G38U,0.0898
24,C22G C64G,0.0723

row,Variant,self-cleavage
1,G28A C57U,0.163
2,G53U U79C,0.535
3,C36A C66G,0.177
4,C7U G80A,0.164
5,G1A G11A,0.0779
6,U9A A51G,0.59
7,C15G C30A,0.147
8,U23C C48G,1.05
9,G10C A70U,0.65
10,G10U G11C,0.237
11,A8U G28U,0.131
12,G31C G40C,0.0346
13,C4U C75G,0.122
14,C7U G74C,0.325
15,C48A C58A,0.831
16,C7U G17A,0.332
17,A77U C86G,0.623
18,C75G A83C,0.489
19,C30A G81U,0.134
20,A8U C22G,0.19
21,G39U G59U,1.02
22,G80A G81C,0.106
23,C44G C57A,0.944
24,U37A U60C,0.192

row,Variant,self-cleavage
1,C7A G29C,0.0707
2,U9C C75A,0.115
3,C58A U65C,1.19
4,U37G C66A,0.199
5,A56C G67U,0.814
6,C48U U72G,0.639
7,A42C G50C,0.375
8,C13A C57G,0.19
9,C7A U20C,0
10,G55U U65G,0.847
11,C21U U65A,0.293
12,C41G A71U,0.554
13,A42G C85A,0.745
14,U37C C84G,0.587
15,U46G U65G,0.712
16,C48U C61A,0.87
17,G81C A87U,0.265
18,C18G U23A,0
19,G1U C36U,0.318
20,G59U C86G,0.975
21,G28A C33A,0.107
22,A43C G76U,0.95
23,C13U G73U,0.0875
24,C3A C14U,0.697

row,Variant,self-cleavage
1,U20C G59U,0.128
2,C22U C36G,0.162
3,A51G A71U,0.629
4,C63A U79A,0.636
5,G39A C64A,0.458
6,G1C U65A,0
7,A51C G80A,0.345
8,U23A G82A,0.266
9,G35C A43G,0.111
10,G40C A51U,0.157
11,C13U C33U,0.397
12,G11C C41G,0.712
13,C64U C75U,0.252
14,C21G C61G,0.0386
15,G25C U79A,0.0615
16,C32G C61U,0.026
17,G38U G39A,0.0415
18,G35C A83U,0.0898
19,U9A G76A,0.955
20,C48A C86U,0.923
21,C22G C41U,0.0656
22,G10C A43C,0.219
23,G25A C86U,0.248
24,G6U G55A,0.59

row,Variant,self-cleavage
1,U72A A83G,0.318
2,C26U G28C,0.19
3,C26U G82U,0.769
4,C24U U37G,0.138
5,C15A C22A,0.111
6,C61U G82C,0.281
7,G29C C32U,0.119
8,U46G G68C,0.396
9,U23G U37A,0.0678
10,A43C C85U,0.475
11,C7A G80C,0.192
12,C4G G35A,0
13,C4U U20A,0.0554
14,C19A C26A,0.462
15,C7U U20C,0
16,G6A C58G,0.68
17,G5C C22G,0
18,G10A G17U,0.525
19,U20C A56C,0.0615
20,U9A A45C,0.723
21,G29A A70U,0.0739
22,C32A A51C,0.244
23,U60C G82A,0.427
